Measured values: patent US9175313B2, “Three-dimensional structure of isoprene synthase and its use thereof for generating variants” (Danisco US Inc., priority 2009, dated 2015)
Where a chain is given by its changes, count along the chain named. In names and notes the source's numbering stands. Entries after “also recorded” stand apart in the source; their conditions may differ.

B1: A453N: P. alba IspS variant A453N; pDW99, strain DW397, SEQ ID NO: 65 (protein)
chain: MEARRSANYEPNSWDYDYLLSSDTDESIEVYKDKAKKLEAEVRREINNEKAEFLTLLELIDNVQRLGLGYRFESDIRGALDRFVSSGGFDAVTKTSLHGTALSFRLLRQHGFEVSQEAFSGFKDQNGNFLENLKEDIKAILSLYEASFLALEGENILDEAKVFAISHLKELSEEKIGKELAEQVNHALELPLHRRTQRLEAVWSIEAYRKKEDANQVLLELAILDYNMIQSVYQRDLRETSRWWRRVGLATKLHFARDRLIESFYWAVGVAFEPQYSDCRNSVAKMFSFVTIIDDIYDVYGTLDELELFTDAVERWDVNAINDLPDYMKLCFLALYNTINEIAYDNLKDKGENILPYLTKAWADLCNAFLQEAKWLYNKSTPTFDDYFGNAWKSSSGPLQLVFAYFAVVQNIKKEEIENLQKYHDTISRPSHIFRLCNDLASASAEIARGETNNSVSCYMRTKGISEELATESVMNLIDETWKKMNKEKLGGSLFAKPFVETAINLARQSHCTYHNGDAHTSPDELTRKRVLSVITEPILPFERENLYFQGLEHHHHHH
B2: SPC: P. alba MEA G491S L494P T536C (+) TEV; pDW112, SEQ ID NO: 91 (protein)
chain: B1 chain with N453A, G491S, L494P, T536C
modifications: TEV site
B3: SP: P. alba MEA G491S L494P (+) TEV; pDW110, SEQ ID NO: 87 (protein)
chain: B1 chain with N453A, G491S, L494P
modifications: TEV site
B4: T536C: P. alba IspS variant T536C; pDW102, strain DW400, SEQ ID NO: 71 (protein)
chain: B1 chain with N453A, T536C
B5: D345V: P. alba IspS variant (protein, UniProt Q50L36 38-595, looked up, variant D345V)
Isoprene synthase, …: CSVSTENVSFTETETEARRSANYEPNSWDYDYLLSSDTDESIEVYKDKAKKLEAEVRREINNEKAEFLTLLELIDNVQRLGLGYRFESDIRGALDRFVSSGGFDAVTKTSLHGTALSFRLLRQHGFEVSQEAFSGFKDQNGNFLENLKEDIKAILSLYEASFLALEGENILDEAKVFAISHLKELSEEKIGKELAEQVNHALELPLHRRTQRLEAVWSIEAYRKKEDANQVLLELAILDYNMIQSVYQRDLRETSRWWRRVGLATKLHFARDRLIESFYWAVGVAFEPQYSDCRNSVAKMFSFVTIIVDIYDVYGTLDELELFTDAVERWDVNAINDLPDYMKLCFLALYNTINEIAYDNLKDKGENILPYLTKAWADLCNAFLQEAKWLYNKSTPTFDDYFGNAWKSSSGPLQLVFAYFAVVQNIKKEEIENLQKYHDTISRPSHIFRLCNDLASASAEIARGETANSVSCYMRTKGISEELATESVMNLIDETWKKMNKEKLGGSLFAKPFVETAINLARQSHCTYHNGDAHTSPDELTRKRVLSVITEPILPFER
B6: D345M: P. alba IspS variant (protein, UniProt Q50L36 38-595, looked up, variant D345M)
Isoprene synthase, …: B5 Isoprene synthase, … with V308M
B7: D345S: P. alba IspS variant (protein, UniProt Q50L36 38-595, looked up, variant D345S)
Isoprene synthase, …: B5 Isoprene synthase, … with V308S
B8: D345C: P. alba IspS variant (protein, UniProt Q50L36 38-595, looked up, variant D345C)
Isoprene synthase, …: B5 Isoprene synthase, … with V308C
B9: D345A: P. alba IspS variant (protein, UniProt Q50L36 38-595, looked up, variant D345A)
Isoprene synthase, …: B5 Isoprene synthase, … with V308A
B10: D345W: P. alba IspS variant (protein, UniProt Q50L36 38-595, looked up, variant D345W)
Isoprene synthase, …: B5 Isoprene synthase, … with V308W

Assays:
Format in all cases: biochemical
[1] = DMAPP assay of site evaluation library (SEL) lysates with ELISA protein quantitation: specific activity ranked as performance index; conditions: for isoprene synthase activity of variants relative to parent, in words: SEL analysis of P. alba IspS; for performance index: primary SEL screen, activity on DMAPP per unit weight relative to the parental molecule (parent = 1)
Procedure: 1. Prepared Patch Plates from Glycerol Stock Plates. Using a V&S 96 pin Replication Tool, cultures were patched onto a LB Agar 35 CMP/50 Kan large patch plates from overnight glycerol stock plates. Plates were incubated at 30° C. overnight for 20 to 24 hr. Cultures can be stored at 4° C. for up to a week.
2. Prepared Overnight Growth Plates. 500 mL of LB 35 CMP/50 Kan media were prepared. 300 μL/well of LB 35 CMP/50 Kan media were dispensed into deep 96 well plates (VWR). Using a V&S Replication Tool, the patch inoculum was transferred into deep 96 well plate by touching the tool pins to respective patch and using a circular motion to coat the pins with inoculum. The media was inoculated by dipping the tool then shaking the pin within the well. The overnight growth plates were sealed using a Breathe-Easier Sealing Membrane (Diversified Biotech). The plates were incubated in a Vertiga Shaking Incubator at 30° C. with shaking at 800 rpm overnight for 16 to 18 hr.
3. Prepared Day Growth Plate. Deep 96 well plates were prepared by dispensing 588 μL/well of LB 35 CMP/50 Kan media. Overnight growth plates were removed from the incubator. Overnight cultures were diluted 50-fold and 12 μL of overnight culture were transferred to day growth plates containing 588 μL/well of LB media containing antiobiotics. Overnight growth plates were sealed with new Breathe-Easier Sealing Membranes. Cultures were incubated at 30° C. and 800 rpm for 2.5 hr. Frozen 12 mM IPTG (Sigma) vials were removed from −20° C. and placed in a hood to thaw.
4. OD600 Plate Read of Overnight, Induction, and Harvest. 150 μL 1×PBS were dispensed into 96 well Costar Read Plates (#9017). 50 μL of culture samples were transferred to Read Plates. The OD600 reading was recorded using a Spectramax Plate Reader (Molecular Devices).
5. Induction. Electronic multi-channel pipettors were prepared to dispense 4×20 μL/well of IPTG (if 4× replicates). The multi-dispense option in the electronic pipettor was adjusted if more replicates was necessary. Thawed 12 mM IPTG was poured into 50 mL or 100 mL sterile reservoirs. 20 μL/well of IPTG into each 600 μL/well culture. Overnight growth plates were resealed. Cultures were incubated at 30° C. and 800 rpm for 4 hr. OD600 readings of plates were recorded according instructions above.
6. Harvest. 400 μL of induced culture were transferred to 800 μL Grenier storage plates. Plates were centrifuged at 3300 rpm for 20 min at 2° to 8° C. in a low speed benchtop centrifuge. Supernatants were discarded, pellets should stay in the conical bottom well. Residual supernatants were slapped out onto a paper towel on the benchtop. Plates were sealed with an aluminum foil membrane (Beckman-Coulter). Plates were covered with a plastic plate lid if available. Storage plates were labeled accordingly and stored frozen at −80° C.
Plates containing induced cell pellets were removed from the −80° C. freezer and allowed to thaw on the benchtop for 30 minutes prior to lysis. 200 μl of lysis buffer (50 mM Tris pH 8, 25 mM MgCl2, 74 μg/ml DNase I, 250 U/ml lysozyme, 0.1% Tween 20, 0.5 mM PMSF) was added to each pellet, and plates were incubated on an Eppendorf Thermomixer at 25° C. for 30 minutes at 1200 rpm. After lysis, plates were centrifuged at 3450 rpm for 15 minutes at 4° C. Supernatants were then removed and diluted 10-fold prior to DMAPP assay. 80 μl of the diluted supernatant was added to 20 μl of the DMAPP working stock (20 mM DMAPP in 0.1 M Phosphate Buffer pH 8.2, DMAPP triammonium salt, Cayman chemicals) in a Zinsser glass block. Blocks were then sealed with aluminum sealing membranes, and incubated in Thermomixers at 25° C. for 30 minutes at 450 rpm. Reactions were stopped by incubating blocks on Thermomixers at 70° C. for 12 minutes at 450 rpm. GC-MS was then used for headspace measurements to calculate the amount of isoprene produced by each lysates.
Headspace Assay. […]

[2] = Specific activity measurement of purified isoprene synthase variants (4 mM DMAPP, 30 C, GC-MS headspace); conditions: for S.A. / Variant S.A./WT S.A.: 50 mM NaCl, 50 mM Tris pH = 8, 30° C.; for Variant S.A./WT S.A.: ratio to WT; for specific activity compared to WT isoprene synthase, in words: 30 C, purified enzyme
Procedure: 1. Initial Purification—Resuspend the pellet in 3 ml of fresh lysis buffer. Break cells by passing them through the French Press using the small cylinder. Centrifuge samples for 1 hour at 30,000×G and collect the supernatant. Retain pellet in order to test for presence of insoluble protein. Pre equilibrate 0.5 mL Ni Sepharose 6 Fast Flow resin (Amersham) in a 20 ml disposable column with 10 mL of Ni wash buffer. Add protein to column and shake for 60 min at 4 C to bind protein. Elute protein with 2.5 mL Ni elution buffer.
2. Buffer Exchange—Equilibrate a PD-10 column (GE Healthcare) with 25 mL of PD-10 buffer. Load protein on to column and elute with 3.5 mL of PD-10 buffer.
10 uL of purified enzyme was incubated with 4 mM DMAPP, 50 mM MgCl2 in a buffer containing 50 mM Tris and 50 mM NaCl (pH=8) to a final volume of 100 uL for 15 min. at 30 C in gas tight 2 mL vials. Reactions were terminated with the addition of 100 uL of […] EDTA, pH=8. Samples were analyzed by GC-MS to determine the concentration of isoprene in the headspace of the vials. All specific activity measurements were performed in triplicate.
(§1) Protein concentration was determined by measuring the absorbance of each protein solution at 280 nm on a Helwlett Pachard 8453 UV-Vis spectrophotometer and converting the absorbance to protein concentration using the extinction coefficient as determined on the Expasy website (Gasteiger E., Hoogland C., Gattiker A., Duvaud S., Wilkins M. R., Appel R. D., Bairoch A.; Protein Identification and Analysis Tools on the ExPASy Server; (In) John M. Walker (ed): The Proteomics Protocols Handbook, Humana Press (2005). pp. 571-607). The protein concentrations of isoprene synthase variants assayed for KM and kcat determination were verified by comparative gel electrophoresis of a dilution series of each protein (FIG. 61).

[3] = kcat, KM and Ki determination, rate vs [DMAPP], fit to uncompetitive substrate inhibition; conditions: for KM compared to WT isoprene synthase, in words / rate profile vs [DMAPP] / Km / kcat: 1.25 to 20 mM DMAPP, 30 C; for Km / kcat / Ki: average of three trials ± one standard deviation; for kcat: in s^-1 (unit assumed); for Ki: uncompetitive substrate inhibition by DMAPP, read-out: KiDMAPP
Procedure: 10 uL of purified enzyme was incubated with DMAPP at concentrations ranging from 1.25 to 20 mM DMAPP in a buffer containing 50 mM Tris, 50 mM MgCl2 and 50 mM NaCl (pH=8) to a final volume of 100 uL for 15 min. at 30 C in gas tight 2 mL vials. Reactions were terminated with the addition of 100 uL of 250 mM EDTA, pH=8. Samples were analyzed by GC-MS to determine the concentration of isoprene in the headspace of the vials. Data were analyzed using Kaleidagraph and fit to following equation for uncompetitive substrate inhibition: rate/E=kcat*S/(KM+S*(1+S/Ki)). All kinetic assays were performed in triplicate.
as §1

Molecule	performance index [1]	S.A. [2] [nmol/mg/min]	Variant S.A./WT S.A. [2]	also measured
B1	2.99	170 ± 30	0.4	isoprene synthase activity of variants relative to parent, in words [1]: improved activity; also recorded: high performing
B2		630 ± 40	1.3	KM compared to WT isoprene synthase, in words [3]: less than the KM of the WT; rate profile vs [DMAPP] [3]: uncompetitive substrate inhibition by DMAPP; Km [3]: 3.5 ± 0.8 mM; kcat [3]: 1.5 ± 0.4; Ki [3]: 25 ± 21 mM; specific activity compared to WT isoprene synthase, in words [2]: increased specific activity; also recorded: greater than the WT isoprene synthase but less than the β isoprene synthase variant
B3		770 ± 40	1.6	KM compared to WT isoprene synthase, in words [3]: less than the KM of the WT; rate profile vs [DMAPP] [3]: uncompetitive substrate inhibition by DMAPP; Km [3]: 4.4 ± 0.3 mM; kcat [3]: 1.2 ± 0.1; Ki [3]: 18 ± 1 mM; specific activity compared to WT isoprene synthase, in words [2]: increased specific activity; also recorded: greater than the WT isoprene synthase but less than the β isoprene synthase variant
B4	1.48	430 ± 10	0.9	isoprene synthase activity of variants relative to parent, in words [1]: improved isoprene synthase activity; also recorded: high performing
B5	0.51			
B6	0.43			
B7	0.41			
B8	0.43			
B9	0.50			
B10	0.46			
